Data as given in publication PMC8184850, “Cryo-EM structure of TFIIH/Rad4–Rad23–Rad33 in damaged DNA opening in nucleotide excision repair” (Nature Communications, 2021).
Values belong to the binder of their own block, whether it stands above or below them.

Legend:
[1] = molecular target: T1, 7-subunit coreTFIIH (Saccharomyces cerevisiae | yeast, UniProt Q00578 1-843; P06839 1-778; P32776 1-642; Q02939 1-513; Q04673 1-461; Q12004 …); assay: co-sedimentation; factor challenge: Rad2 added (~6-fold molar excess) to TFIIH/Rad4–23–33/AAF-DNA with ATP, 60 min, then 10–40% glycerol gradient (150 mM potassium acetate, 2 mM ATP), 4 °C; SDS-PAGE and densitometry; conditions: both partners purified
T1 construct: Ssl2 (XPB homologue), ATPase/translocase subunit of yeast coreTFIIH; printed numbering runs to residue 843; Rad3 (XPD homologue), helicase subunit of yeast coreTFIIH; Tfb1 (p62 homologue), subunit of yeast coreTFIIH; Tfb2 (p52 homologue), subunit of yeast coreTFIIH; Ssl1 (p44 homologue), subunit of yeast coreTFIIH; Tfb4 (p34 homologue), subunit of yeast coreTFIIH; Tfb5 (p8 homologue), subunit of …

[2] = molecular target: coreTFIIH (7 subunits) (Saccharomyces cerevisiae? (yeast, tfb6 …, UniProt Q00578;P06839;P32776;Q02939;Q04673;Q12004;Q3E7C1 …)); assay: glycerol gradient sedimentation; ATP; EMSA: 20 mM HEPES, 100 mM K-acetate, 2 mM Mg-acetate, 5 mM DTT, room temperature 20 min, 250 nM each component, 0.2x TBE agarose gel at 4 C (pH not stated in this buffer); conditions: protein: native; tags: TAP tags on Tfb4 and Ssl2; TEV-treated; copies: 1;1;1;1;1;1;1; label: 32P 5' end (T4 PNK) in EMSA; 5' overhang on strand 1: 9 nt from printed strands (text says 10 nt)
[3] = molecular target: T2, 10-subunit holoTFIIH (coreTFIIH with TFIIK: Kin28–Ccl1–Tfb3) (Saccharomyces cerevisiae | yeast, UniProt Q00578 1-843; P06839 1-778; P32776 1-642; Q02939 1-513; Q04673 1-461; Q12004 …); assay: co-sedimentation; 10–40% glycerol gradient (20 mM HEPES, 150 mM potassium acetate, 2 mM magnesium acetate, 4 mM DTT, 2 mM ATP or AMP-PNP), 52,000 rpm 6 h 35 min, 4 °C; Rad4–Rad23–Rad33 pre-assembled on −24*/+24 AAF-DNA, then added to TFIIH; fractions by SDS-PAGE; conditions: both partners purified
T2 construct: Ssl2 (XPB homologue), subunit of yeast TFIIH; Rad3 (XPD homologue), subunit of yeast TFIIH; Tfb1 (p62 homologue), subunit of yeast TFIIH; Tfb2 (p52 homologue), subunit of yeast TFIIH; Ssl1 (p44 homologue), subunit of yeast TFIIH; Tfb4 (p34 homologue), subunit of yeast TFIIH; Tfb5 (p8 homologue), subunit of yeast TFIIH; Kin28, kinase subunit of yeast TFIIK; Ccl1, cyclin subunit of yeast TFIIK; …

percent of TFIIH dissociated from Rad4–Rad23–Rad33 and bound to Rad2 (Rad2 in ~6-fold molar excess, ATP) [1]: ~50%
B1: Rad2 (natural protein, yeast, UniProt P07276 1-1031, looked up)
chain: MGVHSFWDIAGPTARPVRLESLEDKRMAVDASIWIYQFLKAVRDQEGNAVKNSHITGFFRRICKLLYFGIRPVFVFDGGVPVLKRETIRQRKERRQGKRESAKSTARKLLALQLQNGSNDNVKNSTPSSGSSVQIFKPQDEWDLPDIPGFKYDKEDARVNSNKTFEKLMNSINGDGLEDIDLDTINPASAEFEELPKATQYLILSSLRLKSRLRMGYSKEQLETIFPNSMDFSRFQIDMVKRRNFFTQKLINTTGFQDGGASKLNEEVINRISGQKSKEYKLTKTNNGWILGLGANDGSDAQKAIVIDDKDAGALVKQLDSNAEDGDVLRWDDLEDNSLKIVRHESSNATTAPQKRSNRSEDEGCDSDECEWEEVELKPKNVKFVEDFSLKAARLPYMGQSLNNAGSKSFLDKRHDQASPSKTTPTMRISRISVEDDDEDYLKQIEEIEMMEAVQLSKMEKKPEADDKSKIAKPVTSKGTEARPPIVQYGLLGAQPDSKQPYHVTNLNSKSESVIKRTSKTVLSEFRPPSQQEDKGAILTEGEQNLNFISHKIPQFDFNNENSLLFQKNTESNVSQEATKEKSPIPEMPSWFSSTASQQLYNPYNTTNFVEDKNVRNEQESGAETTNKGSSYELLTGLNATEILERESEKESSNDENKDDDLEVLSEELFEDVPTKSQISKEAEDNDSRKVESINKEHRKPLIFDYDFSEDEEDNIVENMIKEQEEFDTFKNTTLSTSAERNVAENAFVEDELFEQQMKDKRDSDEVTMDMIKEVQELLSRFGIPYITAPMEAEAQCAELLQLNLVDGIITDDSDVFLFGGTKIYKNMFHEKNYVEFYDAESILKLLGLDRKNMIELAQLLGSDYTNGLKGMGPVSSIEVIAEFGNLKNFKDWYNNGQFDKRKQETENKFEKDLRKKLVNNEIILDDDFPSVMVYDAYMRPEVDHDTTPFVWGVPDLDMLRSFMKTQLGWPHEKSDEILIPLIRDVNKRKKKGKQKRINEFFPREYISGDKKLNTSKRISTATGKLKKRKM
notes: Rad2 (XPG homologue), yeast; plasmid pGVD52-RAD2HisSumo; also called yeast homolog of XPG; source: E. coli Rosetta(DE3), purified (HisTrap, Ulp1 cleavage, HisTrap flow-through, Heparin HP)

B2: -24*/+24 AAF (dsDNA)
DNA 1: CCCATTCCAACCATCCCACTACCTGTCCATCTTCACTCAACTATCACCC
DNA 2: GGGTGATAGTTGAGTGAAGATGGACAGGTAGTGGGATGGT
modifications: N-2-acetylaminofluorene adduct on the single G of strand 1 (nt 25, position 0)
binding result [2]: binds

binding result [3]: binds
B3: Rad4–Rad23–Rad33 complex (complex, yeast)
chain 1: MNEDLPKEYFELIRKALNEKEAEKAPLSRRRRVRRKNQPLPDAKKKFKTGLNELPRESVVTVNLDSSDDGVVTVPTDDSVEEIQSSEEDYDSEEFEDVTDGNEVAGVEDISVEIKPSSKRNSDARRTSRNVCSNEERKRRKYFHMLYLVCLMVHGFIRNEWINSKRLSRKLSNLVPEKVFELLHPQKDEELPLRSTRKLLDGLKKCMELWQKHWKITKKYDNVGLYMRTWKEIEMSANNKRKFKTLKRSDFLRAVSKGHGDPDISVQGFVAMLRACNVNARLIMSCQPPDFTNMKIDTSLNGNNAYKDMVKYPIFWCEVWDKFSKKWITVDPVNLKTIEQVRLHSKLAPKGVACCERNMLRYVIAYDRKYGCRDVTRRYAQWMNSKVRKRRITKDDFGEKWFRKVITALHHRKRTKIDDYEDQYFFQRDESEGIPDSVQDLKNHPYYVLEQDIKQTQIVKPGCKECGYLKVHGKVGKVLKVYAKRDIADLKSARQWYMNGRILKTGSRCKKVIKRTVGRPKGEAEEEDERLYSFEDTELYIPPLASASGEITKNTFGNIEVFAPTMIPGNCCLVENPVAIKAARFLGVEFAPAVTSFKFERGSTVKPVLSGIVVAKWLREAIETAIDGIEFIQEDDNRKEHLLGALESWNTLLLKLRIRSKLNSTYGKIAEEEPNVTKEQNIADNHDNTETFMGGGFLPGIANHEARPYSEPSEPEDSLDYVSVDKAEESATDDDVGEDYSDFMKELEMSEESD
chain 2: MVSLTFKNFKKEKVPLDLEPSNTILETKTKLAQSISCEESQIKLIYSGKVLQDSKTVSECGLKDGDQVVFMVSQKKSTKTKVTEPPIAPESATTPGRENSTEASPSTDASAAPAATAPEGSQPQEEQTATTERTESASTPGFVVGTERNETIERIMEMGYQREEVERALRAAFNNPDRAVEYLLMGIPENLRQPEPQQQTAAAAEQPSTAATTAEQPAEDDLFAQAAQGGNASSGALGTTGGATDAAQGGPPGSIGLTVEDLLSLRQVVSGNPEALAPLLENISARYPQLREHIMANPEVFVSMLLEAVGDNMQDVMEGADDMVEGEDIEVTGEAAAAGLGQGEGEGSFQVDYTPEDDQAISRLCELGFERDLVIQVYFACDKNEEAAANILFSDHAD
chain 3: MSKSTNVSYERVELFENPKVPIEVEDEILEKYAESSLDHDMTVNELPRFFKDLQLEPTIWKLVRNEDVIIEGTDVIDFTKLVRCTCQLLILMNNLTVIDDLWSMLIRNCGRDVDFPQVALRDHVLSVKDLQKISNLIGADQSSGTIEMISCATDGKRLFMTYLDFGCVLGKLGYLKM
notes: Rad4 (XPC homologue), yeast; Rad23 (RAD23B homologue), yeast; Rad33 (CETN2 homologue), yeast; plasmid pETDuet-RAD33; also called Rad4–23–33; yeast homologue of XPC–RAD23B–CETN2; copies: + +
